{"source": "patent US20230348560A1", "target": "HLA-G1 isoform stably expressed on THP1 cells (human) (UniProt P17693)", "test": "cell-based or functional assay", "data": [{"substance": "full length ILT2 (pNT-110 SFG-ILT2-T2A-ΔCD19) (from UniProt Q8NHL6 24-650) (receptor)", "values": [{"measurement": "luciferase activity of THP1-HLA-G1-GFPffluc targets after 24 h coculture (E:T 5:1 and 1:1)", "result": "> 100000", "unit": "light units"}]}]}
